Assay [1] concerns the target Yan SAM (Drosophila melanogaster) (UniProt Q01842). As to conditions: cited from earlier work.
Assay [2] has as its target SLy1 SAM domain construct SAMwt (SLy1 residues P254-E321 with an N-terminal glycine from the tag) (mouse) (UniProt Q8K352). Kind of assay: AUC; sedimentation equilibrium, 30 °C, standard buffer (50 mM potassium phosphate, 20 mM NaCl, 0.1 mM EDTA, pH 6.4) without NaN3; three loading concentrations (SAMwt 60, 120, 300 µM; SAMlg 31, 64, 98 µM) at several speeds; global fit to a monomer-dimer equilibrium; dimer to monomers.

Assay [3] has the same target. Briefly: MST; Alexa Fluor 488 labelled protein kept constant (SAMwt 70 nM, SAMlg 60 nM), total protein varied (SAMwt 1.1-824 µM, SAMlg 0.2-250 µM); standard buffer pH 6.4, room temperature; fit to a monomer-dimer equilibrium; dimer to monomers.
In the next assay the target is TEL SAM (Homo sapiens) (UniProt P41212). As to conditions: cited from earlier work.

TEL SAM, sequence (P41212 40-124): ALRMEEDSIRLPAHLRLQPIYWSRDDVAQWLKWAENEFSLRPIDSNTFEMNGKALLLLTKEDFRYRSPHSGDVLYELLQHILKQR
Yan SAM, sequence (Q01842 33-117): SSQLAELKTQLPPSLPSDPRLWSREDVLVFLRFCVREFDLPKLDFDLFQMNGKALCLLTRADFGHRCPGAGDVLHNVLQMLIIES

What is called Kd is the equilibrium constant for the complex coming apart. As to Yan SAM (from UniProt Q01842), the Kd in assay [1] is 11 µM.

As a reminder, the stoichiometry N is the number of molecules, sites or subunits per partner or assembly. In assay [2], “SLy1 SAM domain construct SAMwt (SLy1 residues P254-E321 with an N-terminal glycine from the tag) (from UniProt Q8K352 254-321) (domain or fragment)” returned a Ka of 8500 M⁻¹, a Kd of 117 µM and a stoichiometry N of 2. Moreover, the Kd in assay [3] is 153 µM.

On to TEL SAM (from UniProt P41212), for which, in the assay with TEL SAM (Homo sapiens), the Kd was 0.0017 µM.
